Test results taken from the supplement of paper PMC11908140.

B1: library; numbered along this chain (parent)
chain: MRKPRAAVGSGHRKQAASQEGRQKHAKNNSQAKPSACDGLARQPEEVVLQASVSSYHLFRDVAEVTAFRGSLLSWYDQEKRDLPWRRRAEDEMDLDRRAYAVWVSEVMLQQTQVATVINYYTGWMQKWPTLQDLASASLEEVNQLWAGLGYYSRGRRLQEGARKVVEELGGHMPRTAETLQQLLPGVGRYTAGAIASIAFGQATGVVDGNVARVLCRVRAIGADPSSTLVSQQLWGLAQQLVDPARPGDFNQAAMELGATVCTPQRPLCSQCPVESLCRARQRVEQEQLLASGSLSGSPDVEECAPNTGQCHLCLPPSEPWDQTLGVVNFPRKASRKPPREESSATCVLEQPGALGAQILLVQRPNSGLLAGLWEFPSVTWEPSEQLQRKALLQELQRWAGPLPATHLRHLGEVVHTFSHIKLTYQVYGLALEGQTPVTTVPPGARWLTQEEFHTAAVSTAMKKVFRVYQGQQPGTCMGSKRSQVSSPCSRKKPRMGQQVLDNFFRSHISTDAHSLNSAAQ

Variants of: B1
Assay: 8OG:A repair function score (normalized; synonymous = 0, nonsense = -1) (normalized log-likelihood score); higher = more repair activity (WT-like)
Settings: with 8OG:A DNA repair reporter (GFP) in HEK-293 MUTYH KO cells
Procedure, shortened: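 Lentiviral MUTYH cDNA NNN codon-scan libraries in HEK-293 MUTYH knockout cells (10 pg/ml doxycycline) were co-transfected with an 8OG:A GFP repair reporter plus mCherry. At 72 h, viable mCherry+ cells were sorted into GFP+ (repair) and GFP− bins, three replicates per tile, then tile amplicons were sequenced. Per-tile Rosace fitness scores became a normalized repair function score anchored on synonymous and nonsense distributions. Synonymous medians were set to 0 and nonsense to -1; variants under 300 counts per million at the start were removed.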

8OG:A repair function score of substitutions, site by site:
E350: I -0.103; L -0.12; R -0.162; N -0.112; T 0.0414; C -0.0435; V -0.0826; S 0.0422; K -0.17; D -0.304; W 0.0193; M 0.00868; G -0.128; F -0.339; P -1.12; Y -0.185; A -0.188; Q -0.13
G356: S -0.118; T -0.197; A -0.11; K -0.0901; I -0.348; Q 0.00571; V -0.13; M -0.207; D -0.142; E -0.141; P -0.0644; W -0.0772; H -0.148; N -0.277; R -0.153; Y -0.0505; L -0.2; F -0.253; C -0.0641
S344: N 0.0332; M 0.0335; Y 0.0271; R -0.0609; Q 0.019; P -0.301; W -0.0913; T 0.00415; V -0.00413
L349: I 0.0298; P -0.901; E -0.993; M 0.0308; R -1.15; V -0.0456; Q -1.83; Y -0.257; T -0.236; S -0.842; N -0.957; A -0.352; C -0.018; W -0.668; G -1.03; K -1.07; D -0.966; H -0.39; F -0.112
L355: A 0.00558; E 0.0516; W -0.0689; P -0.132; K -0.0816; T 0.059; S -0.0259; D -0.182; M -0.0213; I -0.0806; Q -0.061; C -0.0489; V -0.0573; Y 0.0403; H -0.0638; R -0.00513; F -0.0288; N 0.0266; G 0.0028
L361: R -1.12; V -0.0292; E -1.08; T -0.222; W -0.755; S -0.625; I -0.107; A -0.284; C -0.101; D -1.06; H -1.22; F -0.49; Q -0.666; N -0.575; G -0.729; M 0.0584; K -0.984; P -1.01; Y -0.508
I359: E -0.818; M -0.00943; A -0.485; R -0.51; N -0.425; V -0.0354; L 0.0476; G -0.91; W 0.0132; K -0.27; Q -0.322; P -1.08; Y -0.266; T 0.0861; C -0.249; S -0.465; H -0.143; F 0.0413; D -0.946
V362: F -0.662; A -0.284; E -0.932; G -0.901; D -0.671; C -0.232; H -0.608; I -0.125
V348: F -0.996; C -0.104; A -0.589; T -0.732; M -0.551; N -1.04; D -1.83; S -1.25; I -0.0535; L -0.351; P -1.11; R -1.43; K -1.21; E -0.925; Y -1.02; H -1.31; Q -1.64; G -1.15; W -1.28
G353: L -0.135; D 0.0347; Y -0.16; S -0.0386; R -0.038; A 0.00991; I -0.129; M -0.178; P -0.17; Q -0.109; F -0.0929; T 0.0569; C -0.0857; V -0.123; W -0.099; E -0.227; H -0.144; N -0.00787; K -0.127
C347: P -1.08; D -1.26; Q -1.57; R -1.15; N -1.21; E -1.34; W -1.21; V -0.045; S -0.457; I -0.0428; F -0.387; Y -0.846; L -0.18; G -0.229; A -0.0315; T -0.206; K -1.08; M -0.15; H -1.55
Q358: M -0.074; G -0.334; Y -0.283; R 0.137; H -0.152; I -0.163; D -0.342; W -0.308; A -0.219; K 0.0561; S -0.152; C 0.0229; P 0.069; N -0.131; E -0.0404; T 0.145; F -0.316; L 0.00809; V 0.112
A357: P 0.04; W -0.104; R -0.0515; L -0.0718; M -0.0956; C 0.0134; G -0.0641; Q 0.125; Y -0.118; S 0.0171; E -0.0948; V -0.0294; N 0.104; K -0.152; H -0.147; F -0.0934; T -0.0252; D -0.193; I -0.0394
A345: T -0.111; S -0.148; K -0.499; I 0.0369; R -0.408; D -0.542; N -0.356; V 0.0157; P -0.334; G -0.243; M -0.102; Y -0.126; Q -0.264; H -0.107; E -0.567; L -0.04; F -0.165; W -0.174; C 0.0391
P352: I -0.461; F -0.188; Y -0.175; D -0.0437; S -0.0991; E -0.0129; K 0.00765; A -0.0351; R -0.124; G -0.0543; T 0.0253; L -0.0502; W -0.38; V -0.096
A354: Q -0.0822; I -0.0486; F -0.0389; N -0.255; W -0.0982; R -0.0437; L -0.0264; E -0.0284; K -0.061; M -0.19; H -0.107; T -0.0601; Y -0.11; G -0.0387; V 0.0356; C -0.078; S -0.0885; D -0.0478; P 0.0108
L360: T -1.26; P -1.26; N -1.27; W -1.54; G -0.95; C -0.171; R -1.17; E -1.15; Y -0.447; I -0.403; H -1.17; A -0.845; S -1.32; Q -0.916; F -0.195; M -0.352; V -0.666; D -1.19; K -1.23
T346: I 0.0144; D -0.917; W -0.751; M -0.125; Q -0.787; L -0.0228; S -0.168; A -0.0694; C 0.0316; P -0.585; F -0.247; Y -0.168; N -0.262; H -0.35; K -0.886; V 0.0305; R -0.56; E -1.03; G -0.335
Q351: E -0.219; F -0.101; K 0.044; V 0.000574; G -0.16; D -0.266; T -0.0645; P -0.756; M 0.0542; C -0.0209; N -0.125; I -0.0185; L -0.0629; Y 0.023; W -0.0304; A -0.00592; S -0.0771; R 0.0269; H 0.0225
